Substitutions are numbered along the chain they refer to. Names and notes keep the numbering of the source.
B1: MORC2(1–603) S87L (domain or fragment, human, UniProt Q9Y6X9-1 1-603, looked up)
chain: MAFTNYSSLNRAQLTFEYLHTNSTTHEFLFGALAELVDNARDADATRIDIYAERREDLRGGFMLCFLDDGAGMDPSDAASVIQFGKLAKRTPESTQIGQYGNGLKSGSMRIGKDFILFTKKEDTMTCLFLSRTFHEEEGIDEVIVPLPTWNARTREPVTDNVEKFAIETELIYKYSPFRTEEEVMTQFMKIPGDSGTLVIIFNLKLMDNGEPELDIISNPRDIQMAETSPEGTKPERRSFRAYAAVLYIDPRMRIFIHGHKVQTKRLSCCLYKPRMYKYTSSRFKTRAEQEVKKAEHVARIAEEKAREAESKARTLEVRLGGDLTRDSRVMLRQVQNRAITLRREADVKKRIKEAKQRALKEPKELNFVFGVNIEHRDLDGMFIYNCSRLIKMYEKVGPQLEGGMACGGVVGVVDVPYLVLEPTHNKQDFADAKEYRHLLRAMGEHLAQYWKDIAIAQRGIIKFWDEFGYLSANWNQPPSSELRYKRRRAMEIPTTIQCDLCLKWRTLPFQLSSVEKDYPDTWVCSMNPDPEQDRCEASEQKQKVPLGTFRKDMKTQEEKQKQLTEKIRQQQEKLEALQKTTPIRSQADLKKLPLEVTTRPST
notes: also called S87L variant; source: Sf9 insect cells (baculovirus), purified as for wild type; not shown: tandem StrepII, N-terminal, cleaved
B2: MORC2(1–603) T424R (domain or fragment, human, UniProt Q9Y6X9-1 1-603, looked up)
chain: B1 chain with L87S, T424R
notes: also called T424R variant; source: Sf9 insect cells (baculovirus), purified as for wild type; not shown: tandem StrepII, N-terminal, cleaved

What was measured:
[1] = biological target: the molecule itself; assay: SEC-MALS; SEC-MALS with QELS, Superdex 200 (10/300), 293 K, gel filtration buffer (50 mM HEPES pH 7.5, 150 mM NaCl, 2 mM MgCl2, 0.25 mM TCEP); no nucleotide added; WT at 40 µM, S87L at 7.5 µM; monomer to dimer
[2] = biological target: the molecule itself; assay: SEC-MALS; SEC-MALS with QELS, Superdex 200 (10/300), 293 K, gel filtration buffer; 2 mM Mg-AMPPNP added to the sample, 30 min on ice before injection; WT at 40 µM, T424R at 7.5 µM; monomer to dimer

Protein	stoichiometry N [1]	stoichiometry N [2]
B1	2	–
B2	–	2
